B1: RD012-1 (fHBP V3 domain 1-fHBP V1 domain 2-(G)-fHBP V1 domain 1-fHBP V2 domain 2-(GSG)2-4T-His) (other)
chain: SSGSGSGGGGVAADIGTGLADALTAPLDHKDKGLKSLTLEDSISQNGTLTLSAQGAEKTFKVGDKDNSLNTGKLKNDKISRFDFVQKIEVDGQTITLASGEFQIYKQDHSAVVALQIEKINNPDKIDSLINQRSFLVSGLGGEHTSFDKLPKDVMATYRGTAFGSDDAGGKLTYTIDFAAKQGHGKIEHLKSPELNVDLAVAYIKPDEKHHAVISGSVLYNQDEKGSYSLGIFGEKAQEVAGSAEVETANGIHHIGLAAKQGSSGGGGSGGGGVTADIGTGLADALTAPLDHKDKGLKSLTLEDSISQNGTLTLSAQGAEKTYGNGDSLNTGKLKNDKVSRFDFIRQIEVDGQLITLESGEFQVYKQSHSALTALQTEQEQDPEHSEKMVAKRRFRIGDIAGEHTAFNQLPDGKAEYHGKAFSSDDAGGKLTYTIDFAAKQGHGKIEHLKTPEQNVELAAAELKADEKSHAVILGDTRYGSEEKGTYHLALFGDRAQEIAGSATVKIGEKVHEIGIAGKQGSGGSGAHIVMVDAYKPTKHHHHHH
notes: Expressed in E. coli BL21(DE3), purified by His-trap and SEC; also called RD012-1 fusion protein; MenB antigen
B2: RD012-2 (fHBP V3 domain 1-fHBP V1 domain 2-fHBP V1 domain 1T1-fHBP V2 domain 2-(GSG)2-4T-His) (other)
chain: SSGSGSGGGGVAADIGTGLADALTAPLDHKDKGLKSLTLEDSISQNGTLTLSAQGAEKTFKVGDKDNSLNTGKLKNDKISRFDFVQKIEVDGQTITLASGEFQIYKQDHSAVVALQIEKINNPDKIDSLINQRSFLVSGLGGEHTSFDKLPKDVMATYRGTAFGSDDAGGKLTYTIDFAAKQGHGKIEHLKSPELNVDLAVAYIKPDEKHHAVISGSVLYNQDEKGSYSLGIFGEKAQEVAGSAEVETANGIHHIGLAAKQGSGGGGVTADIGTGLADALTAPLDHKDKGLKSLTLEDSISQNGTLTLSAQGAEKTYGNGDSLNTGKLKNDKVSRFDFIRQIEVDGQLITLESGEFQVYKQSHSALTALQTEQEQDPEHSEKMVAKRRFRIGDIAGEHTAFNQLPDGKAEYHGKAFSSDDAGGKLTYTIDFAAKQGHGKIEHLKTPEQNVELAAAELKADEKSHAVILGDTRYGSEEKGTYHLALFGDRAQEIAGSATVKIGEKVHEIGIAGKQGSGGSGAHIVMVDAYKPTKHHHHHH
notes: Expressed in E. coli BL21(DE3), purified by His-trap and SEC; also called RD012-2 fusion protein; MenB antigen

Biological target: T1, NPM-4C (binding peptide 2-NPM fusion protein)
T1 construct: Self-assembling nanoparticle protein expressed in E. coli; also called particle protein component; VLP carrier NPM-4C
Test: covalent binding reaction (4T/4C) with NPM-4C at 22 °C for 24 h, SEC purification, SDS-PAGE

Row | Binder | binding result
1 | B1 | binds
2 | B2 | binds

— patent EP4803550A1 (Yantai Patronus Biotech Co., Ltd., dated 2026)
